Source: the supplement of paper PMC9112550, “Optimization of the antimicrobial peptide Bac7 by deep mutational scanning” (BMC Biology, 2022)

System: Escherichia coli TOP10
Assay: shrunken log2 fold change of peptide-encoding DNA abundance (4.5 h post-induction vs induction); higher = less antimicrobial activity (less host growth inhibition)
Details: time post-induction: 4.5 h; library: site-saturation at positions 5, 18, 19, 20
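Note: peptides expressed intracellularly from a pBAD plasmid library in pooled LB shake-flask culture, induced with 0.3% L-arabinose, DNA abundance read by NGS, three biological replicates, DESeq2 with apeglm shrinkage.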

| Sequence | shrunken log2 fold change |
| --- | --- |
| RRIRFRPPRLPRPRPRPKRVPRP | 0.598 |
| RRIRLRPPRLPRPRPRPDDIPRP | -0.0521 |
| RRIRVRPPRLPRPRPRPKANPRP | 0.103 |
| RRIRFRPPRLPRPRPRPGYWPRP | 0.0724 |
| RRIRSRPPRLPRPRPRPPMLPRP | 0.0967 |
| RRIRRRPPRLPRPRPRPTNMPRP | -0.0659 |
| RRIRNRPPRLPRPRPRPRFDPRP | 0.0608 |
| RRIRARPPRLPRPRPRPDFNPRP | 0.0591 |
| RRIRERPPRLPRPRPRPDGNPRP | -0.032 |
| RRIRPRPPRLPRPRPRPLMDPRP | -0.145 |
| RRIRLRPPRLPRPRPRPWVEPRP | -0.186 |
| RRIRTRPPRLPRPRPRPRHHPRP | -0.174 |
| RRIRFRPPRLPRPRPRPFPMPRP | -0.0754 |
| RRIRVRPPRLPRPRPRPSRGPRP | 0.413 |
| RRIRQRPPRLPRPRPRPTWGPRP | 0.168 |
| RRIRTRPPRLPRPRPRPVPSPRP | 0.0454 |
| RRIRFRPPRLPRPRPRPHDFPRP | -0.199 |
| RRIRSRPPRLPRPRPRPWPAPRP | 0.199 |
| RRIRWRPPRLPRPRPRPQWNPRP | -0.156 |
| RRIRGRPPRLPRPRPRPPSIPRP | 0.519 |
| RRIRHRPPRLPRPRPRPNSSPRP | -0.203 |
| RRIRCRPPRLPRPRPRPLDGPRP | -0.151 |
| RRIRVRPPRLPRPRPRPPDRPRP | 0.379 |
| RRIRERPPRLPRPRPRPGLWPRP | 0.168 |
| RRIRSRPPRLPRPRPRPMRQPRP | 0.728 |

| Sequence | shrunken log2 fold change |
| --- | --- |
| RRIRWRPPRLPRPRPRPEAWPRP | 1.02 |
| RRIRRRPPRLPRPRPRPITYPRP | -0.0184 |
| RRIRWRPPRLPRPRPRPDHKPRP | -0.134 |
| RRIRHRPPRLPRPRPRPSGWPRP | -0.291 |
| RRIRDRPPRLPRPRPRPSIQPRP | -0.0741 |
| RRIRFRPPRLPRPRPRPQISPRP | -0.217 |
| RRIRIRPPRLPRPRPRPENNPRP | -0.36 |
| RRIRGRPPRLPRPRPRPFVQPRP | 0.0324 |
| RRIRSRPPRLPRPRPRPWVSPRP | -0.203 |
| RRIRPRPPRLPRPRPRPHFMPRP | -0.231 |
| RRIRERPPRLPRPRPRPKDWPRP | 0.111 |
| RRIRNRPPRLPRPRPRPWFDPRP | -0.876 |
| RRIRARPPRLPRPRPRPINAPRP | -0.256 |
| RRIRERPPRLPRPRPRPSSVPRP | -0.306 |
| RRIRARPPRLPRPRPRPTIFPRP | 0.377 |
| RRIRCRPPRLPRPRPRPSGGPRP | -0.0862 |
| RRIRQRPPRLPRPRPRPFTQPRP | -0.0608 |
| RRIRKRPPRLPRPRPRPSRNPRP | -0.0207 |
| RRIRFRPPRLPRPRPRPCDYPRP | -0.112 |
| RRIRPRPPRLPRPRPRPERAPRP | 1.17 |
| RRIRNRPPRLPRPRPRPEITPRP | -0.0284 |
| RRIRYRPPRLPRPRPRPQWTPRP | -0.0155 |
| RRIRERPPRLPRPRPRPQCLPRP | -0.116 |
| RRIRFRPPRLPRPRPRPRSSPRP | 0.12 |
| RRIRKRPPRLPRPRPRPTVRPRP | 0.899 |

| Sequence | shrunken log2 fold change |
| --- | --- |
| RRIRERPPRLPRPRPRPTGCPRP | 0.155 |
| RRIRNRPPRLPRPRPRPYISPRP | 0.00753 |
| RRIRYRPPRLPRPRPRPSVCPRP | -0.769 |
| RRIRYRPPRLPRPRPRPTQVPRP | 0.188 |
| RRIRNRPPRLPRPRPRPEQTPRP | 0.235 |
| RRIRDRPPRLPRPRPRPEYYPRP | -0.00627 |
| RRIRDRPPRLPRPRPRPSKRPRP | -0.273 |
| RRIRSRPPRLPRPRPRPGLRPRP | 0.222 |
| RRIRHRPPRLPRPRPRPARQPRP | 0.14 |
| RRIRVRPPRLPRPRPRPQKVPRP | -0.355 |
| RRIRLRPPRLPRPRPRPEPAPRP | 0.0966 |
| RRIRNRPPRLPRPRPRPYHDPRP | -0.165 |
| RRIRWRPPRLPRPRPRPHNCPRP | -0.349 |
| RRIRHRPPRLPRPRPRPSYQPRP | -1.14 |
| RRIRARPPRLPRPRPRPAQRPRP | 0.695 |
| RRIRERPPRLPRPRPRPVCVPRP | -0.0194 |
| RRIRFRPPRLPRPRPRPWCGPRP | -0.142 |
| RRIRERPPRLPRPRPRPVAWPRP | 0.00482 |
| RRIRPRPPRLPRPRPRPACPPRP | 0.147 |
| RRIRSRPPRLPRPRPRPIGNPRP | -0.234 |
| RRIRWRPPRLPRPRPRPWSIPRP | -0.46 |
| RRIRIRPPRLPRPRPRPEFLPRP | -0.0199 |
| RRIRNRPPRLPRPRPRPWCVPRP | -0.396 |
| RRIRCRPPRLPRPRPRPIGFPRP | 0.129 |
| RRIRYRPPRLPRPRPRPWMGPRP | -0.294 |

| Sequence | shrunken log2 fold change |
| --- | --- |
| RRIRLRPPRLPRPRPRPFMPPRP | -0.195 |
| RRIRYRPPRLPRPRPRPFEIPRP | -0.17 |
| RRIRMRPPRLPRPRPRPTDGPRP | -0.0062 |
| RRIRLRPPRLPRPRPRPAMEPRP | -0.0355 |
| RRIRHRPPRLPRPRPRPWTVPRP | -0.217 |
| RRIRPRPPRLPRPRPRPICIPRP | -0.158 |
| RRIRPRPPRLPRPRPRPSPDPRP | 0.146 |
| RRIRWRPPRLPRPRPRPEHAPRP | 0.921 |
| RRIRSRPPRLPRPRPRPEEEPRP | 1.47 |
| RRIRKRPPRLPRPRPRPKRTPRP | 1.7 |
| RRIRRRPPRLPRPRPRPPKPPRP | 0.824 |
| RRIRNRPPRLPRPRPRPQWLPRP | -0.317 |
| RRIRKRPPRLPRPRPRPVGDPRP | 0.247 |
| RRIRCRPPRLPRPRPRPYTMPRP | -0.382 |
| RRIRLRPPRLPRPRPRPENEPRP | -0.0211 |
| RRIRGRPPRLPRPRPRPCSWPRP | 0.19 |
| RRIRKRPPRLPRPRPRPMWLPRP | 0.642 |
| RRIRQRPPRLPRPRPRPILDPRP | 0.0277 |
| RRIRARPPRLPRPRPRPFPNPRP | -0.221 |
| RRIRDRPPRLPRPRPRPMLMPRP | 0.348 |
| RRIRFRPPRLPRPRPRPRTMPRP | 0.0577 |
| RRIRVRPPRLPRPRPRPVFPPRP | 0.038 |
| RRIRVRPPRLPRPRPRPIARPRP | 0.0436 |
| RRIRIRPPRLPRPRPRPPFSPRP | -0.245 |
| RRIRFRPPRLPRPRPRPPYRPRP | 0.0239 |

| Sequence | shrunken log2 fold change |
| --- | --- |
| RRIRYRPPRLPRPRPRPEYLPRP | -0.139 |
| RRIRVRPPRLPRPRPRPNMQPRP | -0.33 |
| RRIRYRPPRLPRPRPRPGPQPRP | -0.151 |
| RRIRGRPPRLPRPRPRPGKNPRP | 0.0656 |
| RRIRRRPPRLPRPRPRPPDGPRP | 0.326 |
| RRIRDRPPRLPRPRPRPYAKPRP | 0.019 |
| RRIRLRPPRLPRPRPRPFMKPRP | -0.222 |
| RRIRPRPPRLPRPRPRPEICPRP | 0.0345 |
| RRIRMRPPRLPRPRPRPWVMPRP | -0.022 |
| RRIRGRPPRLPRPRPRPQPYPRP | -0.0844 |
| RRIRPRPPRLPRPRPRPHSWPRP | 0.069 |
| RRIRHRPPRLPRPRPRPPVFPRP | 0.612 |
| RRIRCRPPRLPRPRPRPTNWPRP | -0.0072 |
| RRIRQRPPRLPRPRPRPYNWPRP | -0.11 |
| RRIRRRPPRLPRPRPRPPDTPRP | 0.436 |
| RRIRMRPPRLPRPRPRPELRPRP | 2.02 |
| RRIRTRPPRLPRPRPRPVDMPRP | -0.238 |
| RRIRFRPPRLPRPRPRPSTYPRP | -0.802 |
| RRIRTRPPRLPRPRPRPEESPRP | -0.0116 |
| RRIRNRPPRLPRPRPRPPCSPRP | -0.327 |
| RRIRERPPRLPRPRPRPSGWPRP | -0.0693 |
| RRIRTRPPRLPRPRPRPCDCPRP | -0.0712 |
| RRIRNRPPRLPRPRPRPDAQPRP | -0.173 |
| RRIRRRPPRLPRPRPRPHTFPRP | -0.108 |
| RRIRTRPPRLPRPRPRPKGYPRP | -0.0992 |

| Sequence | shrunken log2 fold change |
| --- | --- |
| RRIRMRPPRLPRPRPRPEWRPRP | 0.829 |
| RRIRERPPRLPRPRPRPYMCPRP | -0.216 |
| RRIRIRPPRLPRPRPRPWWWPRP | -0.115 |
| RRIRSRPPRLPRPRPRPDTCPRP | -0.225 |
| RRIRPRPPRLPRPRPRPQNIPRP | -0.456 |
| RRIRWRPPRLPRPRPRPMADPRP | 0.0452 |
| RRIRFRPPRLPRPRPRPRIWPRP | 0.051 |
| RRIRYRPPRLPRPRPRPNGCPRP | -0.000687 |
| RRIRMRPPRLPRPRPRPKVQPRP | 1.85 |
| RRIRHRPPRLPRPRPRPVVHPRP | -0.115 |
| RRIRSRPPRLPRPRPRPETIPRP | 0.148 |
| RRIRQRPPRLPRPRPRPSHAPRP | -0.107 |
| RRIRTRPPRLPRPRPRPVATPRP | 0.299 |
| RRIRCRPPRLPRPRPRPSLDPRP | -0.203 |
| RRIRHRPPRLPRPRPRPSKRPRP | 0.0594 |
| RRIRPRPPRLPRPRPRPELDPRP | 0.0969 |
| RRIRFRPPRLPRPRPRPKAAPRP | 0.264 |
| RRIRDRPPRLPRPRPRPCMWPRP | 0.569 |
| RRIRSRPPRLPRPRPRPANPPRP | 0.11 |
| RRIRVRPPRLPRPRPRPGYVPRP | -0.351 |
| RRIRRRPPRLPRPRPRPICAPRP | 0.127 |
| RRIRLRPPRLPRPRPRPIDRPRP | -0.241 |
| RRIRIRPPRLPRPRPRPYPEPRP | -0.0522 |
| RRIRDRPPRLPRPRPRPHAMPRP | 0.158 |
| RRIRRRPPRLPRPRPRPMQKPRP | 0.026 |
